Binding as percent of normal VWF data for one substance are collected here from article PMC8178691.

In the assay the target is human purified plasma‐derived fibronectin (human). As to the kind of experiment: ELISA.

Regarding “recombinant VWF p.D2509E (from UniProt P04275 23-2813) (natural protein)”, the binding as percent of normal VWF was determined as 68%.
